Source: the supplement of paper PMC10567573

B1: PRIM1 (parent)
chain: CCSSADICPKCWTLMTMAIRIIDR

Variants of: B1
Experiment: protein stability index of a GFP-peptide fusion (GPS, HEK-293T) (PSI 1-6); higher = more stable
Conditions: c terminus: a fixed tail appended
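Also: lentivirally expressed fusions sorted by FACS into six bins by GFP to DsRed ratio, PSI derived from sequencing read proportions per bin multiplied by bin number.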

In order of falling protein stability index:
1. CCSSADIAPKCWTLMTMAIRIIDR [C8A]  3.21
2. CCSSADILPKCWTLMTMAIRIIDR [C8L]  3.02
3. CCSMADICPKCWTLMTMAIRIIDR [S4M]  2.97
4. CCSSADICPKCWTLMTMAIRIISR [D23S]  2.96
5. CCSSADICPKCWTLVTMAIRIIDR [M15V]  2.96
6. CCSSADICPKCWTLMTMAIRIKDR [I22K]  2.94
7. CCSSADICPKWWTLMTMAIRIIDR [C11W]  2.84
8. CCSSADICPKCWTLMTMAIRIPDR [I22P]  2.71
9. CCSSADICKKCWTLMTMAIRIIDR [P9K]  2.69
10. CCSSSDICPKCWTLMTMAIRIIDR [A5S]  2.63
11. CCSSADFCPKCWTLMTMAIRIIDR [I7F]  2.63
12. CCSSADICPCCWTLMTMAIRIIDR [K10C]  2.62
13. CCSSADICPKCWTLMTMASRIIDR [I19S]  2.6
14. CCSSADICPKCWTLMTMAVRIIDR [I19V]  2.58
15. CCSSADICPKCWTLMGMAIRIIDR [T16G]  2.56
16. CCSSADLCPKCWTLMTMAIRIIDR [I7L]  2.56
17. CCSSADICPKCWTLMTQAIRIIDR [M17Q]  2.54
18. CCSSADICPKCWTLMTMAIRINDR [I22N]  2.52
19. MCSSADICPKCWTLMTMAIRIIDR [C1M]  2.5
20. CCSSADICPKCWTLMTEAIRIIDR [M17E]  2.5
21. CCSSAHICPKCWTLMTMAIRIIDR [D6H]  2.49
22. CMSSADICPKCWTLMTMAIRIIDR [C2M]  2.48
23. CCSSADICPKCWTLMTNAIRIIDR [M17N]  2.48
24. CCSSAQICPKCWTLMTMAIRIIDR [D6Q]  2.44
25. CCSSADICPKCWTLTTMAIRIIDR [M15T]  2.34
26. CCSSADICPKCWTLMTDAIRIIDR [M17D]  2.33
27. CCSSADICPKCWWLMTMAIRIIDR [T13W]  2.31
28. CCSSADICPKCWTLMTMAIRILDR [I22L]  2.3
29. CCSSADICHKCWTLMTMAIRIIDR [P9H]  2.29
30. CCSSADICPKCWTLMTMAIPIIDR [R20P]  2.25
31. CCSSADICPKCWTLHTMAIRIIDR [M15H]  2.25
32. CCSSADICPKCWTLMTMAIRHIDR [I21H]  2.23
33. CPSSADICPKCWTLMTMAIRIIDR [C2P]  2.21
34. CCSSADECPKCWTLMTMAIRIIDR [I7E]  2.21
35. CCSSADICPKCWTLMTMAIRGIDR [I21G]  2.2
36. CCSVADICPKCWTLMTMAIRIIDR [S4V]  2.19
37. CCSSADICPKCWTLMTMVIRIIDR [A18V]  2.18
38. CCSSADICPKCWTRMTMAIRIIDR [L14R]  2.18
39. CCSSADICPKCWTLMTMKIRIIDR [A18K]  2.17
40. CCSSADWCPKCWTLMTMAIRIIDR [I7W]  2.16
41. CCSSWDICPKCWTLMTMAIRIIDR [A5W]  2.15
42. CCSSADICPKCWTLMTMAIRIADR [I22A]  2.1
43. CCSSADICPKCWTLMPMAIRIIDR [T16P]  2.09
44. CCSSADICPKCWTLMYMAIRIIDR [T16Y]  2.08
45. CCSSADICPKCWTEMTMAIRIIDR [L14E]  2.06
46. CCSSADICPKCWTLMTMAIHIIDR [R20H]  2.05
47. CCSSADICPKCWTLMTAAIRIIDR [M17A]  2.03
48. CCSSADICPKCWTLMTMAISIIDR [R20S]  2.01
49. CCSSCDICPKCWTLMTMAIRIIDR [A5C]  2.01
50. CCSSADICPKCWTLMLMAIRIIDR [T16L]  2
51. LCSSADICPKCWTLMTMAIRIIDR [C1L]  2
52. CYSSADICPKCWTLMTMAIRIIDR [C2Y]  1.96
53. CCSSADICPKCWTLMTMAIRIIDH [R24H]  1.95
54. CCSSADICPKCWTLMRMAIRIIDR [T16R]  1.95
55. CCNSADICPKCWTLMTMAIRIIDR [S3N]  1.95
56. CCSSADICPKCWTLMTFAIRIIDR [M17F]  1.94
57. CCSSAIICPKCWTLMTMAIRIIDR [D6I]  1.91
58. CCSSADICPKCWELMTMAIRIIDR [T13E]  1.88
59. CCSSADICPKCWTLMVMAIRIIDR [T16V]  1.87
60. CCISADICPKCWTLMTMAIRIIDR [S3I]  1.87
61. CCSSASICPKCWTLMTMAIRIIDR [D6S]  1.86
62. CCSGADICPKCWTLMTMAIRIIDR [S4G]  1.85
63. CCSSADIQPKCWTLMTMAIRIIDR [C8Q]  1.8
64. CCSSADICPKCWTCMTMAIRIIDR [L14C]  1.8
65. CCSSADICIKCWTLMTMAIRIIDR [P9I]  1.78
66. CCSSADICPKCWTLMTMAIRIIDY [R24Y]  1.78
67. CCSSADICPKCWTLCTMAIRIIDR [M15C]  1.77
68. CCSSADICPKCWTIMTMAIRIIDR [L14I]  1.75
69. CCSNADICPKCWTLMTMAIRIIDR [S4N]  1.72
70. CCSSADICPKCWTLMTMAIRIWDR [I22W]  1.72
71. CCSSADICPKCWTLMTMAIRIIHR [D23H]  1.69
72. CCSSADICPKCWTLGTMAIRIIDR [M15G]  1.69
73. CCSSADICPKCWTLMTMAIRIIRR [D23R]  1.68
74. CCSSADICPKCWTLMTMAIRTIDR [I21T]  1.68
75. CCSSRDICPKCWTLMTMAIRIIDR [A5R]  1.67
76. CCCSADICPKCWTLMTMAIRIIDR [S3C]  1.65
77. CCSSADICPKCWTLMTMFIRIIDR [A18F]  1.64
78. CCSSADICPKCWDLMTMAIRIIDR [T13D]  1.61
79. CCSSADICPKCWTLMTVAIRIIDR [M17V]  1.6
80. CCSSADICPKCWTLLTMAIRIIDR [M15L]  1.59
81. CCSSAYICPKCWTLMTMAIRIIDR [D6Y]  1.58
82. CCSSADICPKCWTLMTMAIREIDR [I21E]  1.58
83. CCSSADICPKCWTLMTMAFRIIDR [I19F]  1.57
84. CCSSADICPKCWTLMTMTIRIIDR [A18T]  1.56
85. CCDSADICPKCWTLMTMAIRIIDR [S3D]  1.56
86. CCSSADISPKCWTLMTMAIRIIDR [C8S]  1.54
87. CCSSADICAKCWTLMTMAIRIIDR [P9A]  1.53
88. ICSSADICPKCWTLMTMAIRIIDR [C1I]  1.53
89. CCTSADICPKCWTLMTMAIRIIDR [S3T]  1.53
90. CCSSADMCPKCWTLMTMAIRIIDR [I7M]  1.52
91. CCSSQDICPKCWTLMTMAIRIIDR [A5Q]  1.51
92. CCSSDDICPKCWTLMTMAIRIIDR [A5D]  1.41
93. CCSSADICNKCWTLMTMAIRIIDR [P9N]  1.29
94. CCSSADICPKCVTLMTMAIRIIDR [W12V]  1.23
